According to patent US20240010722A1 (published 2024):

Key:
[1] = biological target: T1, human MAdCAM on CHO cells (human, UniProt Q13477 19-382); experiment: flow cytometry on CHO cells
T1 construct: whole, on cells; also called CHO cells over-expressing human MAdCAM
T1 sequence (looked up): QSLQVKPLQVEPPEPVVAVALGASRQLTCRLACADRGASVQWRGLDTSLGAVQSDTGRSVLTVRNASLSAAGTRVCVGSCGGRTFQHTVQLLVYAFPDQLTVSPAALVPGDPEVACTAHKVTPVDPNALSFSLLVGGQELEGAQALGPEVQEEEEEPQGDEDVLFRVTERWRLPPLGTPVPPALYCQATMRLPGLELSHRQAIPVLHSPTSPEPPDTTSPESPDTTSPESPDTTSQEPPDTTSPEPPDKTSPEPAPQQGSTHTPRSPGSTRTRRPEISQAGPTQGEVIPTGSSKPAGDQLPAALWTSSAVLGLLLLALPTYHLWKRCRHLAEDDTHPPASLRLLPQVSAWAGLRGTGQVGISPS
Protocol: (§1) Parental CHO cells or CHO cells over-expressing human MAdCAM or murine MAdCAM were seeded onto wells of a 96 well plate (Corning) overnight. After washing 3 times with F12+10% FBS media, the plate was blocked for 1 hour with 5 uM whole human IgG. 10 nM parental MAdCAM-IL-2 M bi-specifics PRNT1 and PRNT2, or optimized variants MIAB12, MIAB13, MIAB25, MIAB26, MIAB37, MIAB204 and MIAB197 were captured for 1 hour. After washing 2 times with F12+10% FBS media, freshly-isolated human PBMCs were stimulated for 60 minutes with captured IL-2 MM bispecifics. Cells were then fixed for 10 minutes with BD Cytofix, permeabilized sequentially with BD Perm III, and BioLegend FOXP3 permeabilization buffer, blocked with human serum and stained for 30 minutes with antibodies against phospho-STAT5 A488, CD25 PE, FOXP3 AF647 and CD4 PerCP Cy5.5, CD3 BV421, CD56 BV785 and acquired on an Attune NXT with plate loader. […] Accordingly, PRNT1, PRNT2, MIAB1, MIAB12, MIAB13, MIAB25, MIAB26, MIAB37 MIAB204, and MIAB197 selectively activate Tregs.

murine MAdCAM on cells = biological target: T2, murine MAdCAM on cells (mouse, UniProt Q61826 22-405); experiment: flow cytometry on CHO cells
T2 construct: whole, on cells; also called CHO cells over-expressing murine MAdCAM; MAdCAM-1 expressing structures of mouse mesenteric lymph node
T2 sequence (looked up): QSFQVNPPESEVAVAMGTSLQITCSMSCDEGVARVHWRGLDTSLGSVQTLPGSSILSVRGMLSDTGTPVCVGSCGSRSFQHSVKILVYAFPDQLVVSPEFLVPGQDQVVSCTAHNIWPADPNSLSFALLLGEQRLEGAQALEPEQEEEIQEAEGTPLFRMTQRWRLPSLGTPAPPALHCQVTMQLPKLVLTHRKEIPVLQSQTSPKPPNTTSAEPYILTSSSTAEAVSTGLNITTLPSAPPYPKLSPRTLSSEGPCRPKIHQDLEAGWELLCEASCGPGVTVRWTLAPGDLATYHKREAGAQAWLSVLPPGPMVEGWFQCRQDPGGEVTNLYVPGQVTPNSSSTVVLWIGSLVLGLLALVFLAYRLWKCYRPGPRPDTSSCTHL
Protocol: as §1

- binding result [1]: binds
- binding result (murine MAdCAM on cells): binds
B1: MIAB37 (antibody, V domains shown)
VH: EVQLLESGGGLVQPGGSLRLSCAASGFTFDDYAMHWVRQAPGKGLEWVASITSSSAFIDYADSVKGRFTISRDNSKNTLYLQMNSLRAEDTAVYYCAQERVDWNSYFDLWGQGTLVTVSS
VL: EIVMTQSPATLSVSPGERATLSCRASQGISNSYLAWYQQKPGQAPRLLIYGASTRATGIPARFSGSGSGTEFTLTISSLQSEDFAVYYCQQYYTYPPTFGQGTKVEIK
notes: tested with human Fc
